This is an account of results in IntAct's records for PubMed 24725409.

To fix the notation:
B1: Cadherin-related family member 2 (Homo sapiens), Q9BYE9 (parent)
chain: MAQLWLSCFLLPALVVSVAANVAPKFLANMTSVILPEDLPVGAQAFWLVAEDQDNDPLTYGMSGPNAYFFAVTPKTGEVKLASALDYETLYTFKVTISVSDPYIQVQREMLVIVEDRNDNAPVFQNTAFSTSINETLPVGSVVFSVLAVDKDMGSAGMVVYSIEKVIPSTGDSEHLFRILANGSIVLNGSLSYNNKSAFYQLELKACDLGGMYHNTFTIQCSLPVFLSISVVDQPDLDPQFVREFYSASVAEDAAKGTSVLTVEAVDGDKGINDPVIYSISYSTRPGWFDIGADGVIRVNGSLDREQLLEADEEVQLQVTATETHLNIYGQEAKVSIWVTVRVMDVNDHKPEFYNCSLPACTFTPEEAQVNFTGYVDEHASPRIPIDDLTMVVYDPDKGSNGTFLLSLGGPDAEAFSVSPERAVGSASVQVLVRVSALVDYERQTAMAVQVVATDSVSQNFSVAMVTIHLRDINDHRPTFPQSLYVLTVPEHSATGSVVTDSIHATDPDTGAWGQITYSLLPGNGADLFQVDPVSGTVTVRNGELLDRESQAVYYLTLQATDGGNLSSSTTLQIHLLDINDNAPVVSGSYNIFVQEEEGNVSVTIQAHDNDEPGTNNSRLLFNLLPGPYSHNFSLDPDTGLLRNLGPLDREAIDPALEGRIVLTVLVSDCGEPVLGTKVNVTITVEDINDNLPIFNQSSYNFTVKEEDPGVLVGVVKAWDADQTEANNRISFSLSGSGANYFMIRGLVLGAGWAEGYLRLPPDVSLDYETQPVFNLTVSAENPDPQGGETIVDVCVNVKDVNDNPPTLDVASLRGIRVAENGSQHGQVAVVVASDVDTSAQLEIQLVNILCTKAGVDVGSLCWGWFSVAANGSVYINQSKAIDYEACDLVTLVVRACDLATDPGFQAYSNNGSLLITIEDVNDNAPYFLPENKTFVIIPELVLPNREVASVRARDDDSGNNGVILFSILRVDFISKDGATIPFQGVFSIFTSSEADVFAGSIQPVTSLDSTLQGTYQVTVQARDRPSLGPFLEATTTLNLFTVDQSYRSRLQFSTPKEEVGANRQAINAALTQATRTTVYIVDIQDIDSAARARPHSYLDAYFVFPNGSALTLDELSVMIRNDQDSLTQLLQLGLVVLGSQESQESDLSKQLISVIIGLGVALLLVLVIMTMAFVCVRKSYNRKLQAMKAAKEARKTAAGVMPSAPAIPGTNMYNTERANPMLNLPNKDLGLEYLSPSNDLDSVSVNSLDDNSVDVDKNSQEIKEHRPPHTPPEPDPEPLSVVLLGRQAGASGQLEGPSYTNAGLDTTDL
partner: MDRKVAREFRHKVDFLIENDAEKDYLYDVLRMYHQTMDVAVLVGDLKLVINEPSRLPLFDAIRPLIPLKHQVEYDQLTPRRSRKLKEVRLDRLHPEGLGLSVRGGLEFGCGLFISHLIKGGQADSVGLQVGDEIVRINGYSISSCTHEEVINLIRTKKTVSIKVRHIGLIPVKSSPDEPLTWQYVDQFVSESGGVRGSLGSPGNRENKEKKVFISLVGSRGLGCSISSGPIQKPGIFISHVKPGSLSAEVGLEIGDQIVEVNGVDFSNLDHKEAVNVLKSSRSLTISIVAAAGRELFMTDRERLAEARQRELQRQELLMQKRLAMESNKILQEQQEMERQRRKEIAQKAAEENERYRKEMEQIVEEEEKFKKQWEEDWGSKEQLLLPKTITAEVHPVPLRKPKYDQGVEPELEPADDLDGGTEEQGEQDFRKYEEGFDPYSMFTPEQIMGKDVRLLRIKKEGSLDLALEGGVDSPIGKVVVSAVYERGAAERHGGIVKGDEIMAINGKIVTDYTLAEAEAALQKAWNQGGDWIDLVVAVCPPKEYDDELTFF
B2: Cadherin-related family member 5 (Homo sapiens), Q9HBB8-2 (parent)
chain: MGSWALLWPPLLFTGLLVRPPGTMAQAQYCSVNKDIFEVEENTNVTEPLVDIHVPEGQEVTLGALSTPFAFRIQGNQLFLNVTPDYEEKSLLEAQLLCQSGGTLVTQLRVFVSVLDVNDNAPEFPFKTKEIRVEEDTKVNSTVIPETQLQAEDRDKDDILFYTLQEMTAGASDYFSLVSVNRPALRLDRPLDFYERPNMTFWLLVRDTPGENVEPSHTATATLVLNVVPADLRPPWFLPCTFSDGYVCIQAQYHGAVPTGHILPSPLVLRPGPIYAEDGDRGINQPIIYSIFRGNVNGTFIIHPDSGNLTVARSVPSPMTFLLLVKGQQADLARYSVTQVTVEAVAAAGSPPRFPQRLYRGTVARGAGAGVVVKDAAAPSQPLRIQAQDPEFSDLNSAITYRITNHSHFRMEGEVVLTTTTLAQAGAFYAEVEAHNTVTSGTATTVIEIQVSEQEPPSTGGGPSEDKRFSVVDMAALGGVLGALLLLALLGLAVLVHKHYGPRLKCCCGKAPEPQPQGFDNQAFLPDHKANWAPVPSPTHDPKPAEAPMPAEPAPPGPASPGGAPEPPAAARAGGSPTAVRSILTKERRPEGGYKAVWFGEDIGTEADVVVLNAPTLDVDGASDSGSGDEGEGAGRGGGPYDAPGGDDSYI
partner: B1 chain
B3: Cadherin-related family member 5 (Homo sapiens), Q9HBB8 (parent)
chain: MGSWALLWPPLLFTGLLVRPPGTMAQAQYCSVNKDIFEVEENTNVTEPLVDIHVPEGQEVTLGALSTPFAFRIQGNQLFLNVTPDYEEKSLLEAQLLCQSGGTLVTQLRVFVSVLDVNDNAPEFPFKTKEIRVEEDTKVNSTVIPETQLQAEDRDKDDILFYTLQEMTAGASDYFSLVSVNRPALRLDRPLDFYERPNMTFWLLVRDTPGENVEPSHTATATLVLNVVPADLRPPWFLPCTFSDGYVCIQAQYHGAVPTGHILPSPLVLRPGPIYAEDGDRGINQPIIYSIFRGNVNGTFIIHPDSGNLTVARSVPSPMTFLLLVKGQQADLARYSVTQVTVEAVAAAGSPPRFPQRLYRGTVARGAGAGVVVKDAAAPSQPLRIQAQDPEFSDLNSAITYRITNHSHFRMEGEVVLTTTTLAQAGAFYAEVEAHNTVTSGTATTVIEIQVSEQEPPSTDVPPSPEAGGTTGPWTSTTSEVPRPPEPSQGPSTTSSGGGTGPHPPSGTTLRPPTSSTPGGPPGAENSTSHQPATPGGDTAQTPKPGTSQPMPPGVGTSTSHQPATPSGGTAQTPEPGTSQPMPPSMGTSTSHQPATPGGGTAQTPEAGTSQPMPPGMGTSTSHQPTTPGGGTAQTPEPGTSQPMPLSKSTPSSGGGPSEDKRFSVVDMAALGGVLGALLLLALLGLAVLVHKHYGPRLKCCCGKAPEPQPQGFDNQAFLPDHKANWAPVPSPTHDPKPAEAPMPAEPAPPGPASPGGAPEPPAAARAGGSPTAVRSILTKERRPEGGYKAVWFGEDIGTEADVVVLNAPTLDVDGASDSGSGDEGEGAGRGGGPYDAPGGDDSYI
partner: B1 partner

Variants of B1 are the subject of the first test. The conditions noted are these: with USH1C.
Turning to L1310R, the “effect of a mutation on the interaction” value was “disrupting interaction strength”.

The variants in a further test derive from B2. The conditions noted are these: with cdhr2_human CDHR2, Q9BYE9.
As to R109G, the “effect of a mutation on the interaction” value is on record as “disrupting interaction strength”.

Variants of B3 are the subject of a further test. Particulars: with USH1C.
With I845R, the “effect of a mutation on the interaction” value is “disrupting interaction strength”.
